Laboratory results as given in the supplement of paper PMC7125110.
± gives the standard error. For part of these data: Variants at the floor of the assay were thinned out.

B1: glmS ribozyme (parent)
chain: AUAAAAGCGCCAGAACUACAGAAAUGUAGUUGACGAGGAGGAGGUUUAUCGAAUUUUCGGCGGAUGCCUCCAAA

What was measured:
Details in all cases: with glucosamine-6-phosphate
glucosamine-6-phosphate [1] = variants of: B1; assay: kcat; higher = faster cleavage; RNA array
In short: (§1)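 Tiles bearing barcoded ribozyme variants, transcribed in situ by E. coli RNA polymerase on sequenced MiSeq chips, were imaged over ~14 h at 37 °C using a hybridised Cy3 probe. Glucosamine-6-phosphate was supplied at 40 μM to 10 mM in HEPES/KCl/Mg(OAc)2 buffer. kobs came from one- or two-exponential decay fits to normalised per-tile medians, and weighted Michaelis–Menten fits then provided kcat and KM.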

glucosamine-6-phosphate [2] = variants of: B1; assay: KM; higher = weaker cofactor use; RNA array
In short: as §1

glucosamine-6-phosphate [3] = variants of: B1; assay: self-cleavage kobs at 160 uM GlcN6P; higher = faster cleavage; RNA array
In short: as §1

glucosamine-6-phosphate [4] = variants of: B1; assay: self-cleavage kobs at 640 uM GlcN6P; higher = faster cleavage; RNA array
In short: as §1

glucosamine-6-phosphate [5] = variants of: B1; assay: self-cleavage kobs at 2500 uM GlcN6P; higher = faster cleavage; RNA array
In short: as §1

glucosamine-6-phosphate [6] = variants of: B1; assay: self-cleavage kobs at 10000 uM GlcN6P; higher = faster cleavage; RNA array
In short: as §1

glucosamine-6-phosphate [7] = variants of: B1; assay: self-cleavage kobs at 40 uM GlcN6P; higher = faster cleavage; RNA array
In short: as §1

Variant | kcat (glucosamine-6-phosphate [1]) [s⁻¹] | KM (glucosamine-6-phosphate [2]) [µM] | self-cleavage kobs at 160 uM GlcN6P (glucosamine-6-phosphate [3]) [s⁻¹] | self-cleavage kobs at 640 uM GlcN6P (glucosamine-6-phosphate [4]) [s⁻¹] | self-cleavage kobs at 2500 uM GlcN6P (glucosamine-6-phosphate [5]) [s⁻¹] | self-cleavage kobs at 10000 uM GlcN6P (glucosamine-6-phosphate [6]) [s⁻¹] | self-cleavage kobs at 40 uM GlcN6P (glucosamine-6-phosphate [7]) [s⁻¹]
U54G U55C | 0.00147 ± 0.0003 | 670 ± 280 | 0.00036 ± 8.1e-05 | 0.000646 ± 9.5e-05 | 0.0012 ± 0.00027 | 0.00156 ± 0.00037 | –
U54A C68A | 5.71e-05 ± 2e-05 | – | 4.94e-05 ± 1.5e-05 | 7.98e-05 ± 1.5e-05 | 7.88e-05 ± 1.1e-05 | – | –
U56C G66U | 0.000242 ± 4e-05 | 1500 ± 650 | – | 8.87e-05 ± 2e-05 | 0.000133 ± 2e-05 | 0.000231 ± 3.4e-05 | –
U56A G66U | 0.000875 ± 6.7e-05 | 2780 ± 350 | 5.15e-05 ± 8.2e-06 | 0.000164 ± 1.8e-05 | 0.000378 ± 4.5e-05 | 0.000712 ± 6.7e-05 | –
U55G G62U | < 1e-05 | – | < 1e-05 | – | – | < 1e-05 | –
U57G U69A | 3.67e-05 ± 1.4e-05 | – | – | 5.54e-05 ± 2.1e-05 | – | – | –
U54A A64U | 0.000124 ± 1.2e-05 | – | – | 7.79e-05 ± 2.6e-05 | 7.51e-05 ± 2.5e-05 | 0.00012 ± 1.1e-05 | –
U55C G66A | 0.0117 ± 0.003 | 1240 ± 450 | 0.00128 ± 0.0002 | 0.0034 ± 0.00061 | 0.0116 ± 0.0017 | 0.00884 ± 0.0018 | 0.0004 ± 6.8e-05
U55C U65A | 0.00421 ± 0.00073 | 2040 ± 540 | 0.00028 ± 7.3e-05 | 0.000826 ± 0.00017 | 0.00204 ± 0.00038 | 0.00379 ± 0.00046 | 0.0001 ± 1.4e-05
A53G U65G | 0.00217 ± 0.00093 | – | 0.000202 ± 4e-05 | 0.000884 ± 0.00018 | 0.00134 ± 0.00033 | – | 9.01e-05 ± 2.5e-05
A53G U65A | 0.00318 ± 0.00053 | 1530 ± 350 | 0.000257 ± 5e-05 | 0.00114 ± 0.00019 | 0.00184 ± 0.00046 | 0.00272 ± 0.00056 | 8.56e-05 ± 1.5e-05
U55G U57A | 0.000252 ± 8.2e-06 | 2520 ± 190 | – | 5.17e-05 ± 1e-05 | 0.000124 ± 1.5e-05 | 0.000203 ± 2e-05 | –
A53C G59C | < 1e-05 | – | – | < 1e-05 | – | < 1e-05 | < 1e-05
U56G C58G | 0.000173 ± 4.6e-06 | 1800 ± 110 | – | 4.42e-05 ± 1e-05 | 0.000103 ± 1.4e-05 | 0.000145 ± 2.1e-05 | –
U55C U56G | 0.0112 ± 0.0051 | – | 0.000456 ± 6.4e-05 | 0.00134 ± 0.00022 | 0.00329 ± 0.00056 | 0.0103 ± 0.0016 | 0.000172 ± 3.6e-05
U54C U69G | 6.89e-05 ± 7.2e-06 | – | 3.54e-05 ± 1.6e-05 | 5.03e-05 ± 1.1e-05 | 7.28e-05 ± 1.1e-05 | 5.47e-05 ± 1.8e-05 | –

Variant | kcat (glucosamine-6-phosphate [1]) [s⁻¹] | KM (glucosamine-6-phosphate [2]) [µM] | self-cleavage kobs at 160 uM GlcN6P (glucosamine-6-phosphate [3]) [s⁻¹] | self-cleavage kobs at 640 uM GlcN6P (glucosamine-6-phosphate [4]) [s⁻¹] | self-cleavage kobs at 2500 uM GlcN6P (glucosamine-6-phosphate [5]) [s⁻¹] | self-cleavage kobs at 10000 uM GlcN6P (glucosamine-6-phosphate [6]) [s⁻¹] | self-cleavage kobs at 40 uM GlcN6P (glucosamine-6-phosphate [7]) [s⁻¹]
U56A C58U | 0.00027 ± 2.5e-05 | 3350 ± 650 | – | 5.03e-05 ± 1.6e-05 | 0.000108 ± 1.9e-05 | 0.000208 ± 3.2e-05 | –
A53U U55A | 0.026 ± 0.012 | – | 0.000887 ± 0.00017 | 0.00403 ± 0.00095 | 0.00891 ± 0.0017 | 0.0215 ± 0.0042 | 0.000486 ± 8.9e-05
U55C A64U | 5.99e-05 ± 7.9e-06 | – | – | – | 4.69e-05 ± 8e-06 | 5.2e-05 ± 5.7e-06 | –
U55C A64G | 0.000719 ± 0.00011 | 1350 ± 370 | 6.7e-05 ± 1e-05 | 0.000233 ± 3e-05 | 0.000568 ± 7e-05 | 0.000595 ± 6.1e-05 | 4.14e-05 ± 1.2e-05
A53C A64C | 8.21e-05 ± 2.3e-05 | – | – | – | – | 6.96e-05 ± 1.6e-05 | –
U56A C68G C71U | 4.87e-05 ± 2e-05 | – | – | 7.83e-05 ± 1.6e-05 | 4e-05 ± 1.6e-05 | – | –
U57A C67A | 0.000119 ± 3.3e-05 | – | – | 4.64e-05 ± 1.4e-05 | 4.66e-05 ± 7.6e-06 | 9.37e-05 ± 1.1e-05 | –
U57A C67U | 0.000139 ± 3.1e-05 | – | – | 5.03e-05 ± 1.7e-05 | 5.36e-05 ± 9.6e-06 | 0.000108 ± 1e-05 | –
U55A U65C C67A | 0.000108 ± 1.2e-05 | – | – | 8.44e-05 ± 2.9e-05 | 8.42e-05 ± 2.6e-05 | 0.000114 ± 2.4e-05 | –
A53U U69A | 0.000102 ± 1.2e-05 | – | 5.84e-05 ± 1.7e-05 | 0.000146 ± 3.1e-05 | 0.000103 ± 1.7e-05 | 9.48e-05 ± 1.3e-05 | 4.28e-05 ± 1.3e-05
U57A U65G | 4.49e-05 ± 7.1e-06 | – | – | – | 4.6e-05 ± 1.3e-05 | 3.88e-05 ± 1.2e-05 | < 1e-05
U54A C61U | 3.19e-05 ± 4.4e-07 | 1620 ± 86 | – | – | – | 2.74e-05 ± 1e-05 | < 1e-05
U54G G60U | < 1e-05 | – | – | – | – | – | –
U57A C58A | 4.9e-05 ± 5.6e-06 | – | – | – | 4.44e-05 ± 1.1e-05 | 4.41e-05 ± 9.8e-06 | –
A53G G66C | 0.000985 ± 5.6e-05 | 1230 ± 190 | 0.000121 ± 5e-05 | – | 0.000619 ± 0.00014 | 0.000909 ± 0.00017 | –
A53U A64U | 6.7e-05 ± 2e-06 | 1330 ± 190 | – | – | 4.18e-05 ± 1.2e-05 | 5.95e-05 ± 7.3e-06 | < 1e-05
